Source: the DeepSol protein solubility set

Assay: soluble on expression in E. coli; label from the status in PepcDB or PDB records

| Sequence | soluble on expression in E. coli |
| --- | --- |
| MSLKYSSTTADYLQWSEAMNLIRKLARDSNYKMSLLIALGCFTGLRISDILALRWNQILDAEEFTIIEIKTGKQRTIRINMQLQQHIRDCYEHINPVGINAPVLISQKGTVYTVQRINVMLKEIKKKYKLQIGNFSCHSLRKTFGRQVYNMNSDNSELALVKLMELFNHSSVSITKRYLGLRQEELLNTYDCLSF | not soluble |
| MSLENTEKLKNSKEVIAYIAECFPNCFTLEGEAKPLKIGIFQDLADRLNDDPKVSKTQLRAALRQYTSSWRYLHGVKPGATRVDLDGNPCGELEEQHVEHAQAALAESKARVEARRKEQVKKVREEAKANKPKAKKPQQARRPQNAPKVEKKPVETRALAASELNVGNQVNVNMGKGNMAATIVEVNKEDVRVQLANGLQMVVKAEHLRAEGGSHHHHHH | soluble |
| MAHHHHHHMWKAIFGKKVDSIKAIDSIYHLSDNDFRWLQGFPQLKGSDRVQTLASSEGEGSKDDYMEEPVGPVSHRDVLLYTVGIIKGATHPLLRESSLAVTGTHTKEGETFFTLDFR | not soluble |
| MGDWIIKLEDVSAGYGKLQTLFDVSLEIPRGLITVIVGPNGAGKSTLLKTMFGFTTVYKGRVLFENTDVTHMPPHDRAKIGMTFIFQLENIFRELTVYENLRLAGYDLPEDVFRDRLEEVFSMFPRLKERLGQKAGTLSGGERQMLAMAIGIMRKPKVFLIDEPTAGLSPKLAKEVLSYVRILNKEGYTVVLVEQNVKASLEIGDKGVLVVNGRIAFDGPAEELLARKDLAKMYLGV | soluble |
| MGSDKIHHHHHHMFQTLDHFLKSWEFEADATQKLLNSLTDESLKQEITSQNWTLGRIAWHTVAAIGIITSNTDLTFQAPAEDYPVPTSAQFIADSYHQASNAFVQALKTQWTDHTLQERINFIGQQMPNGSLLMFLIQHQNHHRGQMTVLMRQAGLTVPGIYGPAKEEWAKFGLEAPKM | not soluble |
| MKTSSIIEFKNPISKYQHDVDDGLHSDYKVINNEFIHKSIRILENYQFIQSLSHADKSTLIQHLKIRKYYHNQTVYNQNDPCTDINILLEGALKLGWSTSQGKYHTDIFVPSGTLINIVPIVTGQPLLHDHIAQGRTVIANLPGQLFVDVIRNNADALFMVLKLICVRTQLNREQNFIYSTETLQTRLAKKLVFLVDYHSYQDKDKILLNLKLSQENLAELLQTSRQSINKELAALSNQNIIEVKYNQIFILDFEKLSNIAQTHQFHSTTKFL | not soluble |
| MIKHESSQPLRVAVAQCRIDWEDKHANLRRMERLAEETAGMADVLFFPEMMTTGFSMNVQALAEPFEEGETIMSLKRVTARHGLALSATMAVRENGKFYNRAYFVTPEGEVFHQDKRHLFRVGGEHEVMTPAQERRIFNYRGWKIFIIPCYDLRFPVWCTNTDLEYDLLVCMANWPEPRRAVWQTLLQARAMENYAYVCGINRVGEDGIGLRYTGDSAILSPRGEYLATCAEGEEKVLYHTLDKGAMQRFRDKFPAWMDMDSFVINYDTDLHP | not soluble |
| MTERFDCHHCNESLFGKKYILREESPYCVVCFETLFANTCEECGKPIGCDCKDLSYKDRHWHEACFHCSQCRNSLVDKPFAAKEDQLLCTDCYSNEYSSKCQECKKTIMPGTRKMEYKGSSWHETCFICHRCQQPIGTKSFIPKDNQNFCVPCYEKQHAMQCVQCKKPITTGGVTYREQPWHKECFVCTACRKQLSGQRFTARDDFAYCLNCFCDLYAKKCAGCTNPISGLGGTKYISFEERQWHNDCFNCKKCSLSLVGRGFLTERDDILCPDCGKDI | soluble |
| AKHLFTSESVSEGHPDKIADQISDAVLDAILEQDPKARVACETYVKTGMVLVGGEITTSAWVDIEEITRNTVREIGYVHSDMGFDANSCAVLSAIGKQSPDINQGVDRADPLEQGAGDQGLMFGYATNETDVLMPAPITYAHRLVQRQAEVRKNGTLPWLRPDAKSQVTFQYDDGKIVGIDAVVLSTQHSEEIDQKSLQEAVMEEIIKPILPAEWLTSATKFFINPTGRFVIGGPMGDCGLTGRKIIVDTYGGMARHGGGAFSGKDPSKVDRSAAYAARYVAKNIVAAGLADRCEIQVSYAIGVAEPTSIMVETFGTEKVPSEQLTLLVREFFDLRPYGLIQMLDLLHPIYKETAAYGHFGREHFPWEKTDKAQLLRDAAGLK | soluble |
| MRPYKRVLIKLSGGALADQTGNSFNSKRLEHIANEILSIVDLGIEVSIVIGGGNIFRGHLAEEWGIDRVEADNIGTLGTIINSLMLRGVLTSKTNKEVRVMTSIPFNAVAEPYIRLRAVHHLDNGYIVIFGGGNGQPFVTTDYPSVQRAIEMNSDAILVAKQGVDGVFTSDPKHNKSAKMYRKLNYNDIVRQNIQVMDQAALLLARDYNLPAHVFNFDEPGVMRRICLGEHVGTLINDDVSMLVREKLEHHHHHH | not soluble |
| GSLSLIRKKGFYKQDVNKTAWELPKTYVSPTHVGSGAYGSVCSAIDKRSGEKVAIKKLSRPFQSEIFAKRAYRELLLLKHMQHENVIGLLDVFTPASSLRNFYDFYLVMPFMQTDLQKIMGMEFSEEKIQYLVYQMLKGLKYIHSAGVVHRDLKPGNLAVNEDCELKILDFGLARHADAEMTGYVVTRWYRAPEVILSWMHYNQTVDIWSVGCIMAEMLTGKTLFKGKDYLDQLTQILKVTGVPGTEFVQKLNDKAAKSYIQSLPQTPRKDFTQLFPRASPQAADLLEKMLELDVDKRLTAAQALTHPFFEPFRDPEEETEAQQPFDDSLEHEKLTVDEWKQHIYKEIVNFSPIARKDSRV | soluble |
| MMSVEHSANSQKKVIVGMSGGVDSSVSAYLLKQQGYQVEGLFMKNWEEDDNEEYCTAAEDLADAQAVCDKLGIPLHTINFAAEYWDNVFEYFLAEYKAGRTPNPDILCNKEIKFKAFLEFADEVLDADYIAMGHYVRRTFPQNGEKPQMLRGLDGNKDQSYFLYTLSHEQVARTLFPVGELEKPEVRRIAEEQGLITAKKKDSTGICFIGERKFTDFLSRYLPAQPGKIETPEGKVIGEHQGLMYHTLGQRKGLHIGGMKESSEQPWYVADKDLKRNVLIAVQGADHPLLKSHGLVAAQLHWVDRTPITEPVRCSVKTRYRQSDIACTIIPLSDDRIKVMFDEPQVAVTPGQSAVFYQGEICLGGGIIEERI | not soluble |
| SLASPKRWTTNGLSTNQTLCYTLGEGQPSPFFYLRSARKMPQSVEQHIAAITDRIKDFVRFLDREEVAPVLAELREMFARELRATEGFASHERELHDRIRHESDYEQLRAIHDELNVLEMERFLAISSVSALHANCTEYRDILADRALALAEDEMEHDGRGRAPCPYALCSMGSDGREEQTLITDQDYLIVYGDGGGEAADEWFREFSELIVERLAQIGFKKCTGDIMPSNPTWRGSLSQWRRKLLAIVRYEYEDYAKNLMDLIVISDARHVAGDRDLAATLIATIRALEKDYFQVLWGMAKAATEMKLALGFLKRLWTEGSGEHKGEFNLKLLAWAPLVMNVRILAINQGVPATNTVKRIEHLAREGSFSPSFANGLVEAYEVLTRHRILLQIKVIKGIQKSSYYLNPYTLPAEEREAIRQALLRIEDLQRTIHTNFSIM | not soluble |
| MAGDCSSHWPVTNPPRGYLSSRRLLEHSTRSIGQTVIHTRDPCDGTGMGVAVIGASMTKFGQRDVWIRELLSQAGEECLTDAGVAPDDVEHLYVSNMASGEFEGQTGIMNLLAHDLGVLPAYSERVDQTSSSGGAGIYEAWQSVASGASEMTLLVGGEKMTHKTTGQATDIIASITHPDEYKHGVTLPSFAGMTARHYLERFDAPRESLARVAVKNHRNGVDNPKAQFQKEITMEKALESPIIADPLRLYDFCPITDGSAALMFTTEERAKEITDEYALVSGIGGATDTHVVHERDDPTIMGGVVESSKQAYEMAGLGPNDLDVAELHDMFTILEFLQLEGIGVADQGTAWEMAMDGVTAKDGELPINTSGGLKSKGHPLGASGVAQGVEIYEQLVGEAGPRQVEADTALACNVGGFGNCVITTIMEAAE | not soluble |
| MKGSTIGTETKECGKETDFCYNGTADISSFSKFQKAGCNTVICQFHANKCFEQNVSGQLLTFCCCNTDDLCNGGAVTDSGSLFDRGLSVLKGLVSAGKK | not soluble |
| MGSDKIHHHHHHMPANDFVSPDSIRAQFSAAMSLMYKQEVPLYGTLLELVSEINQQVMAQQPEVAEALRWTGEIERLDQERHGAIRVGTAEELATIARLFAVMGMQPVGYYDLSSAGVPVHSTAFRAVHEQSLHVSPFRVFTSLLRLELIDNPQLRELAQSILAKRQIFTSRALELIAQCEREGGLDAADAETFVQEALHTFRWHQDATVTAEQYQQLHDQHRLIADVVAFKGPHINHLTPRTLDIDAIQLGMPAKGIPPKAVVEGPPTRRHPILLRQTSFKALQETVAFRDQQGREGSHTARFGEIEQRGAALTPKGRQLYDKLLDATRVALGGAPAEANAERYMALLQANFAEFPDDLAQMREQGLAYFRYFATEKGLAARDQEGRPTTLQGLIDAGHVHFEALVYEDFLPVSAAGIFQSNLGDDAQAEYGSNANREAFEAALGLQVQDELALYAQSERRSLQACAQALNLGSM | not soluble |
| MNARLENLMQWLKEKNVEAAFLTSTPNVFYMTNFHCEPHERLLGMFVFQEKEPILICPKMEEGQARNAGWAHEIIGFTDTDRPWDMIAKAIKDRGINANAVAIEKELLNVERYEELTKLFPNAAFTSAEEKVRELRLIKDEKELSILREAAKMADYAVEVGVNAIKEDRSELEVLAIIEHELKTKGIHKMSFDTMVLAGANSALPHGIPGANKMKRGDFVLFDLGVIIDGYCSDITRTVAFGEISEEQTRIYNTVLAGQLQAVEACKPGVTLGAIDNAARSVIADAGYGDFFPHRLGHGLGISVHEYPDVKAGNESPLKEGMVFTIEPGIYVPNVGGVRIEDDIYITKDGSEILTKFPKELQFVK | soluble |
| MSALDCPAGTVLFRAGQDCPGFLRLDEGSIRVTLTAANGREVVLYRVRPGDVCLQTFACLTEGRSYSAEGVAETRVRGHLMSHADFRTALARDEAFRTEVMQAVARRFADFEHLVEDVALTGFDTRLARVLLRLAKGDTVAATHEALAAETASGRAFVSRRLAEFARQGLVELARGRVTLCDRSGLERIAAEER | not soluble |
| MGSDKIHHHHHHMSQTTLSTIPRLIGQVLSIYDVAPEAIFSAANIDITSDAQTRVPMENMATLWKLAVEATHNNELGLVAASLFQPVYLKSIGLAWLASENLEEGLKRYIASSQLINTEMQIELTERDGIDGEETLIQYQRRLTSSNTIKVHPCAIELGIGFFLKMFRLAAGKNIPATGVYFTFAIEENNKVYEEYFQCPVYGNQAVNGIAFSKALLTETLPTHDVELVEMNEVVINKHLDSMDNGETSSKVIKMINDLLPLGCPTEEVIAYKLHMSKRTLQRKLSVEKQSFLALLTSVRLMLAKEKLANKRVSVTEITYQLGYSSPSTFARAFKKHTQLSPLEYRNQVSSYSSCS | not soluble |
| MSGKRKLEDYKSIIGEEEVSKIQEKAEKLKGRSFVHVNSTSFGGGVAEILHSLVPLLRSIGIEARWFVIEGPTEFFNVTKTFHNALQGNESLKLTEEMKELYLNVNRENSKFIDLSSFDYVLVHDPQPAALIEFYEKKSPWLWRCHIDLSSPNREFWEFLRRFVEKYDRYIFHLPLEHHHHHH | not soluble |
| MSKQTAIRLPDETYERLKALSERTGRTSAYYIREAIEKHIEDMEDLYLAEEATRRIQRGESKIISAEEFWRDLDN | not soluble |
| MGSTGETQITPTHISDEEANLFAMQLASASVLPMILKSALELDLLEIIAKAGPGAQISPIEIASQLPTTNPDAPVMLDRMLRLLACYIILTCSVRTQQDGKVQRLYGLATVAKYLVKNEDGVSISALNLMNQDKVLMESWYHLKDAVLDGGIPFNKAYGMTAFEYHGTDPRFNKVFNKGMSDHSTITMKKILETYTGFEGLKSLVDVGGGTGAVINTIVSKYPTIKGINFDLPHVIEDAPSYPGVEHVGGDMFVSIPKADAVFMKWICHDWSDEHCLKFLKNCYEALPDNGKVIVAECILPVAPDSSLATKGVVHIDVIMLAHNPGGKERTQKEFEDLAKGAGFQGFKVHCNAFNTYIMEFLKKV | soluble |
